No end group written: not given here. FAM = fluorescein amidite
Experiments:
human Argonaute-1 [1] = molecular target: T1, human Argonaute-1 (human, UniProt Q9UL18 1-857); assay: ITC
human Argonaute-1 [2] = molecular target: T1, human Argonaute-1; assay: fluorescence polarisation

**Q.** Which Kd (human Argonaute-1 [1]) does the source give for TVDNGTSAWGKPIDSGPSWGEP (peptide, UniProt Q8NDV7-2 820-841, looked up) [hGW182 (TNRC6A) hook motif] here?
**A.** 383 nM

**Q.** Does {FAM}-TVDNGTSAWGKPIDSGPSWGEP (peptide, UniProt Q8NDV7-2 820-841, looked up) [N-terminal fluorescein amidite (FAM) labeled hGW182 hook fragment] bind (human Argonaute-1 [2])?
**A.** binds
